Data reported in the supplement of paper PMC10567573.

B1: FANCE (parent)
chain: AQVLMLGQILELPWKEETFLVLQS

Variants of: B1
Assay: protein stability index of a GFP-peptide fusion (GPS, HEK-293T) (PSI 1-6); higher = more stable
Conditions: c terminus: a fixed tail appended
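Further: lentivirally expressed fusions sorted by FACS into six bins by GFP to DsRed ratio, PSI derived from sequencing read proportions per bin multiplied by bin number.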

Row | Variant | protein stability index
1 | AQVLMLGQILEIPWKEETFLVLQS [L12I] | 2.49
2 | AQVLMLGQILEKPWKEETFLVLQS [L12K] | 2.57
3 | AQVLMLGQILEMPWKEETFLVLQS [L12M] | 3.18
4 | AQVLMLGQILENPWKEETFLVLQS [L12N] | 1.94
5 | AQVLMLGQILEPPWKEETFLVLQS [L12P] | 4.52
6 | AQVLMLGQILEQPWKEETFLVLQS [L12Q] | 2.95
7 | AQVLMLGQILERPWKEETFLVLQS [L12R] | 3.1
8 | AQVLMLGQILESPWKEETFLVLQS [L12S] | 2.69
9 | AQVLMLGQILETPWKEETFLVLQS [L12T] | 2.91
10 | AQVLMLGQILEWPWKEETFLVLQS [L12W] | 2.1
11 | AQVLMLGQILEYPWKEETFLVLQS [L12Y] | 2.6
12 | AQVLMLGQILELAWKEETFLVLQS [P13A] | 5.32
13 | AQVLMLGQILELCWKEETFLVLQS [P13C] | 4.64
14 | AQVLMLGQILELDWKEETFLVLQS [P13D] | 2.95
15 | AQVLMLGQILELFWKEETFLVLQS [P13F] | 3.35
16 | AQVLMLGQILELHWKEETFLVLQS [P13H] | 2.19
17 | AQVLMLGQILELIWKEETFLVLQS [P13I] | 2.77
18 | AQVLMLGQILELKWKEETFLVLQS [P13K] | 2.57
19 | AQVLMLGQILELLWKEETFLVLQS [P13L] | 2.2
20 | AQVLMLGQILELNWKEETFLVLQS [P13N] | 3.19
21 | AQVLMLGQILELQWKEETFLVLQS [P13Q] | 2.39
22 | AQVLMLGQILELWWKEETFLVLQS [P13W] | 3.76
23 | AQVLMLGQILELYWKEETFLVLQS [P13Y] | 2.88
24 | AQVLMLGQILELPCKEETFLVLQS [W14C] | 2.55

Row | Variant | protein stability index
25 | AQVLMLGQILELPDKEETFLVLQS [W14D] | 1.58
26 | AQVLMLGQILELPEKEETFLVLQS [W14E] | 2.01
27 | AQVLMLGQILELPFKEETFLVLQS [W14F] | 2.72
28 | AQVLMLGQILELPGKEETFLVLQS [W14G] | 2.07
29 | AQVLMLGQILELPHKEETFLVLQS [W14H] | 3.52
30 | AQVLMLGQILELPIKEETFLVLQS [W14I] | 2.95
31 | AQVLMLGQILELPKKEETFLVLQS [W14K] | 1.96
32 | AQVLMLGQILELPLKEETFLVLQS [W14L] | 2.21
33 | AQVLMLGQILELPNKEETFLVLQS [W14N] | 3.44
34 | AQVLMLGQILELPPKEETFLVLQS [W14P] | 1.83
35 | AQVLMLGQILELPRKEETFLVLQS [W14R] | 4.06
36 | AQVLMLGQILELPSKEETFLVLQS [W14S] | 3.07
37 | AQVLMLGQILELPTKEETFLVLQS [W14T] | 2.08
38 | AQVLMLGQILELPYKEETFLVLQS [W14Y] | 2.51
39 | AQVLMLGQILELPWAEETFLVLQS [K15A] | 2.06
40 | AQVLMLGQILELPWDEETFLVLQS [K15D] | 2.01
41 | AQVLMLGQILELPWEEETFLVLQS [K15E] | 2.32
42 | AQVLMLGQILELPWFEETFLVLQS [K15F] | 2.52
43 | AQVLMLGQILELPWHEETFLVLQS [K15H] | 3.52
44 | AQVLMLGQILELPWLEETFLVLQS [K15L] | 2.82
45 | AQVLMLGQILELPWMEETFLVLQS [K15M] | 2.91
46 | AQVLMLGQILELPWNEETFLVLQS [K15N] | 1.94
47 | AQVLMLGQILELPWPEETFLVLQS [K15P] | 4.32
48 | AQVLMLGQILELPWQEETFLVLQS [K15Q] | 1.47

Row | Variant | protein stability index
49 | AQVLMLGQILELPWSEETFLVLQS [K15S] | 2.58
50 | AQVLMLGQILELPWTEETFLVLQS [K15T] | 3.16
51 | AQVLMLGQILELPWVEETFLVLQS [K15V] | 5.16
52 | AQVLMLGQILELPWWEETFLVLQS [K15W] | 2.14
53 | AQVLMLGQILELPWYEETFLVLQS [K15Y] | 5.17
54 | AQVLMLGQILELPWKAETFLVLQS [E16A] | 3.98
55 | AQVLMLGQILELPWKDETFLVLQS [E16D] | 1.67
56 | AQVLMLGQILELPWKFETFLVLQS [E16F] | 4.03
57 | AQVLMLGQILELPWKGETFLVLQS [E16G] | 2.03
58 | AQVLMLGQILELPWKHETFLVLQS [E16H] | 3.11
59 | AQVLMLGQILELPWKKETFLVLQS [E16K] | 2.78
60 | AQVLMLGQILELPWKLETFLVLQS [E16L] | 3.01
61 | AQVLMLGQILELPWKMETFLVLQS [E16M] | 2.5
62 | AQVLMLGQILELPWKNETFLVLQS [E16N] | 2.23
63 | AQVLMLGQILELPWKQETFLVLQS [E16Q] | 3.56
64 | AQVLMLGQILELPWKRETFLVLQS [E16R] | 1.97
65 | AQVLMLGQILELPWKTETFLVLQS [E16T] | 3.35
66 | AQVLMLGQILELPWKVETFLVLQS [E16V] | 3.46
67 | AQVLMLGQILELPWKYETFLVLQS [E16Y] | 3.33
68 | AQVLMLGQILELPWKEATFLVLQS [E17A] | 2.43
69 | AQVLMLGQILELPWKEDTFLVLQS [E17D] | 3.79
70 | AQVLMLGQILELPWKEFTFLVLQS [E17F] | 1.89
71 | AQVLMLGQILELPWKEGTFLVLQS [E17G] | 4.35
72 | AQVLMLGQILELPWKEHTFLVLQS [E17H] | 3.21

Row | Variant | protein stability index
73 | AQVLMLGQILELPWKEKTFLVLQS [E17K] | 3.12
74 | AQVLMLGQILELPWKELTFLVLQS [E17L] | 2.23
75 | AQVLMLGQILELPWKEMTFLVLQS [E17M] | 2.08
76 | AQVLMLGQILELPWKENTFLVLQS [E17N] | 4.33
77 | AQVLMLGQILELPWKEQTFLVLQS [E17Q] | 3.48
78 | AQVLMLGQILELPWKERTFLVLQS [E17R] | 1.48
79 | AQVLMLGQILELPWKEVTFLVLQS [E17V] | 4.49
80 | AQVLMLGQILELPWKEYTFLVLQS [E17Y] | 5.43
81 | AQVLMLGQILELPWKEEAFLVLQS [T18A] | 1.7
82 | AQVLMLGQILELPWKEEDFLVLQS [T18D] | 1.84
83 | AQVLMLGQILELPWKEEFFLVLQS [T18F] | 3.58
84 | AQVLMLGQILELPWKEEGFLVLQS [T18G] | 3.68
85 | AQVLMLGQILELPWKEEHFLVLQS [T18H] | 3.02
86 | AQVLMLGQILELPWKEELFLVLQS [T18L] | 2.16
87 | AQVLMLGQILELPWKEEMFLVLQS [T18M] | 2.92
88 | AQVLMLGQILELPWKEENFLVLQS [T18N] | 4.29
89 | AQVLMLGQILELPWKEEPFLVLQS [T18P] | 1.79
90 | AQVLMLGQILELPWKEEQFLVLQS [T18Q] | 2.45
91 | AQVLMLGQILELPWKEERFLVLQS [T18R] | 4.64
92 | AQVLMLGQILELPWKEESFLVLQS [T18S] | 2.84
93 | AQVLMLGQILELPWKEEYFLVLQS [T18Y] | 2.29
94 | AQVLMLGQILELPWKEETALVLQS [F19A] | 1.77
